From the RNAGym collection of RNA variant scans (doi:10.1093/nar/gkz1192)

B1: CPEB3 Ribozyme (parent)
chain: UAACAGGGGGCCACAGCAGAAGCGUUCACGUCGCAGCCCCUGUCAGAUUCUGGUGAAUCUGCGAAUUCUGCUGUAUAUCUC

Variants of: B1
Experiment: self-cleavage, relative activity (ratio to wild type); higher = more cleavage; in vitro, sequencing
In short: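 For each CPEB3 ribozyme variant, relative activity is its cleaved/total read fraction divided by the unmutated ribozyme's. Barcoded error-prone PCR libraries were transcribed by T7 RNA polymerase (5 hours, 37°C) and held in DNase I for 15 min before an EDTA stop, with cleavage occurring throughout. Template-switching reverse transcription and Illumina sequencing were used to read the RNAs. A 5-read minimum applied, and results are the mean of three batches.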

| Variant | self-cleavage |
| --- | --- |
| C12U C79A | 1.19 |
| A13C U25A | 0.34 |
| A13C U25C | 0.31 |
| C12G U48G | 0.35 |
| C12U C40U | 1.12 |
| C12G G24A | 0.19 |
| A13G A75C | 1.03 |
| A13G A75U | 0.99 |
| A13G A75G | 1.03 |
| C12U G70A | 1.06 |
| A13C C40A | 0.26 |
| A13C A45U | 0.44 |
| A13C C17U | 0.53 |
| A13G G55A | 0.79 |
| A13G G55C | 0.23 |
| A13G C17A | 0.38 |
| A13G C17G | 0.13 |
| A13G C17U | 0.51 |
| A13C G73C | 0.48 |
| A13C G36C | 0.35 |
| A13C G36A | 0.26 |
| C12U A56G | 1.13 |
| A13C U72A | 0.24 |
| A13C U72C | 0.83 |

| Variant | self-cleavage |
| --- | --- |
| A13C U41C | 1.08 |
| A13C A65G | 0.32 |
| C12G C27A | 0.09 |
| C12G C27U | 0.18 |
| C12U U49C | 1.01 |
| A13C C68U | 1.07 |
| C12G C38A | 0.36 |
| A13C U66C | 0.33 |
| C12A U74G | 1.28 |
| A13G C79U | 1.14 |
| A13G C23U | 0.36 |
| A13G C23G | 0.46 |
| A13C A64G | 0.93 |
| A13C A64U | 0.4 |
| A13C C71U | 0.33 |
| C12U A65G | 1.07 |
| C12U A65U | 0.42 |
| A13C G46C | 0.18 |
| C12U U72C | 1.24 |
| C12U U72A | 1.1 |
| C12G U31C | 0.92 |
| C12U A13C | 1.16 |
| C12U A13U | 1.15 |
| C12U A13G | 0.74 |

| Variant | self-cleavage |
| --- | --- |
| A13G A21U | 0.35 |
| A13G A21G | 0.5 |
| C12G A20G | 0.44 |
| C12G C50G | 0.28 |
| A13C C29G | 0.3 |
| A13C A21U | 0.49 |
| C12U U67C | 0.3 |
| C12U U67A | 0.86 |
| C12U U67G | 0.95 |
| C12U U41C | 1.31 |
| C12U U41A | 0.24 |
| C12U U41G | 0.28 |
| A13C U54G | 0.71 |
| A13C U54C | 1.09 |
| A13G G53A | 0.92 |
| A13G G53U | 1.15 |
| A13G G36A | 0.35 |
| A13G G36U | 0.2 |
| C12U G36C | 0.17 |
| C12U A35U | 1.06 |
| C12U A35C | 0.85 |
| C12U A35G | 1.15 |
| A13G G46A | 0.21 |
| A13C U60G | 0.57 |

| Variant | self-cleavage |
| --- | --- |
| A13C U60C | 0.51 |
| A13C U60A | 0.52 |
| C12U U31G | 0.91 |
| C12U U31C | 1.28 |
| C12U U31A | 1.11 |
| C12G A65G | 0.18 |
| C12G A65U | 0.1 |
| A13C A28U | 0.76 |
| A13C A28G | 0.62 |
| A13G U25A | 0.29 |
| A13G U25C | 0.36 |
| A13C U78C | 1.02 |
| A13C U78A | 1 |
| A13G G63C | 0.81 |
| A13G G63A | 0.68 |
| A13C A35U | 0.42 |
| A13C A35G | 1.22 |
| A13C G30A | 0.25 |
| A13C G30U | 0.12 |
| C12U A75G | 1.3 |
| C12U A75U | 1.28 |
| C12U U76C | 1.31 |
| C12G A57G | 0.41 |
| C12G U26C | 0.24 |

| Variant | self-cleavage |
| --- | --- |
| C12G G52A | 0.49 |
| C12U A47C | 0.76 |
| C12U A47G | 1.17 |
| C12U A47U | 0.83 |
| C12U A15U | 1.23 |
| C12U A15G | 0.86 |
| A13C C38A | 0.33 |
| A13C C38U | 0.93 |
| A13G C27U | 0.26 |
| C12U G46A | 0.68 |
| A13G A65G | 0.41 |
| A13G A65C | 0.56 |
| A13G A65U | 0.31 |
| C12G C29G | 0.24 |
| C12U C14U | 1.25 |
| C12U A45U | 0.83 |
| C12U A45G | 1.25 |
| C12U A45C | 0.64 |
| C12U A20U | 0.38 |
| C12U A20G | 1.19 |
| C12G U72A | 0.29 |
| C12G A18U | 0.35 |
| C12G A18G | 0.17 |
| A13C U80A | 0.92 |

| Variant | self-cleavage |
| --- | --- |
| A13C U80C | 1.14 |
| A13G C44U | 0.32 |
| A13G C44A | 0.24 |
| C12U U54G | 1.01 |
| C12U U54C | 1.27 |
| C12U U43C | 1.11 |
| C12U U43A | 1.24 |
| A13C U31C | 0.66 |
| A13C U31A | 0.38 |
| A13C A18U | 0.25 |
| A13C A18G | 0.67 |
| C12A U69A | 0.7 |
| C12A U69C | 0.72 |
| A13C U43C | 0.62 |
| A13C U74C | 1.18 |
| A13G C40U | 0.76 |
| A13G C40A | 0.21 |
| A13G C40G | 0.23 |
| C12U C17U | 1.13 |
| A13G A28C | 0.43 |
| A13G A28G | 0.39 |
| A13G A28U | 0.54 |
| C12G U76C | 0.66 |
| A13C A56U | 0.48 |

| Variant | self-cleavage |
| --- | --- |
| A13C A56G | 0.65 |
| A13C U69A | 0.31 |
| A13C U69C | 0.52 |
| C12G U25C | 0.14 |
| C12A U78C | 1.04 |
| C12A U78A | 1.21 |
| A13G A18G | 0.39 |
| A13G A18U | 0.27 |
| A13C U67C | 0.19 |
| C12U U51C | 1.25 |
| C12U U51A | 1.26 |
| C12G A28U | 0.26 |
| C12U U78A | 1.28 |
| C12U U78C | 1.23 |
| A13C G70A | 0.44 |
| A13G A57G | 0.72 |
| A13G A57U | 0.45 |
| A13G A57C | 0.33 |
| A13G C32A | 0.16 |
| A13G C32U | 0.18 |
| A13G C39G | 0.27 |
| A13G C39A | 0.28 |
| A13G C39U | 1 |
